According to US20120045395:

Molecular target: SMAD3 (endogenous, A549 cells) (Homo sapiens) (UniProt P84022)
Experiment: cell_activity
Conditions: luciferase activity after TGF-beta in A549; indirect

Sequence of SMAD3 (endogenous, A549 cells) (Homo sapiens) (P84022 2-425): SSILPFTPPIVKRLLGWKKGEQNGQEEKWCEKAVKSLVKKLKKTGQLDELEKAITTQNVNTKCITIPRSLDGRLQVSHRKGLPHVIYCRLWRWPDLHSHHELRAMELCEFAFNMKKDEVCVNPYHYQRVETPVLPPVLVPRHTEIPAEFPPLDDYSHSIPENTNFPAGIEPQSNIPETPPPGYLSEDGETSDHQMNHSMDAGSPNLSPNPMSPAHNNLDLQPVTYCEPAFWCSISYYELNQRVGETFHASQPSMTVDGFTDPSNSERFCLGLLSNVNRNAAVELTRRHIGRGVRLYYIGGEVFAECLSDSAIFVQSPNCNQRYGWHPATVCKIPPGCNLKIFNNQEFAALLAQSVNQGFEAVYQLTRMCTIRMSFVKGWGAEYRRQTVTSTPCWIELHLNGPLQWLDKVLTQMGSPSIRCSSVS

**Q.** With “let-7d promoter -1600 to +87 luciferase reporter (p-let-7d-luc)” as the substance, how does the activity (% of untreated reporter activity) read?
**A.** The activity (% of untreated reporter activity) was < 30.
